This is an account of results in article PMC9546532 (Proceedings of the National Academy of Sciences of the …, 2022).

This assay addresses T1, Ela1^(1-143) of the Elc1/Ela1^(1-143) complex (separate chains) (S. cerevisiae, UniProt P53861 1-143).
T1 sequence (looked up): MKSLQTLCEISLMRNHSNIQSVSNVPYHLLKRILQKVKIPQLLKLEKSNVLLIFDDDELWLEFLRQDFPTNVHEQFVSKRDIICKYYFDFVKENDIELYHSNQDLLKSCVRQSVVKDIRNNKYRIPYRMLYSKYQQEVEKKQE
Briefly: SEC + AUC.

B1: Elc1 of the Elc1/Ela1^(1-143) complex (separate chains) (natural protein, S. cerevisiae, UniProt Q03071 1-99, looked up)
chain: MSQDFVTLVSKDDKEYEISRSAAMISPTLKAMIEGPFRESKGRIELKQFDSHILEKAVEYLNYNLKYSGVSEDDDEIPEFEIPTEMSLELLLAADYLSI
For the molecule B1, the binding result was “binds”.
